Measured values from patent US20250270584A1 (University of California, published 2025).

What was measured:
CaM7 (calmodulin 7) = biological target: T1, CaM7 (calmodulin 7) (Arabidopsis thaliana, UniProt P59220 1-149); test: IP-MS, anti-Flag IP of GLR3.3-3Flag from leaves of transgenic plants; co-enrichment, may be indirect
T1 construct: also called AT3G43810; pBudCE4.1-EF-1α-CaM7

3Flag-CaM7 = biological target: T2, 3Flag-CaM7 (Arabidopsis thaliana, UniProt P59220 1-149); test: Co-IP with anti-GFP agarose from transgenic plants expressing GLR3.3-EGFP and 3Flag-CaM7
T2 construct: also called p35S::Flag-CaM7

GST-CaM7 = biological target: T3, GST-CaM7 (Arabidopsis thaliana, UniProt P59220 1-149); test: pull-down with CTD deletion variants
T3 construct: also called pGEX-CaM7

B1: GLR3.3-3Flag (receptor)
chain: EKPKVVKIGSIFSFDSVIGKVAKIAIDEAVKDVNSNPDILSGTKFSVSMQNSNCSGFMGMVEALRFMEKDIVGIIGPQCSVVAHMISHMANELRVPLLSFAVTDPVMSPLQFPYFIRTTQSDLYQMDAIASIVDFYGWKEVIAVFVDDDFGRNGVAALNDKLASRRLRITYKAGLHPDTAVNKNEIMNMLIKIMLLQPRIVVIHVYSELGFAVFKEAKYLGMMGNGYVWIATDWLSTNLDSSSPLPAERLETIQGVLVLRPHTPDSDFKREFFKRWRKMSGASLALNTYGLYAYDSVMLLARGLDKFFKDGGNISFSNHSMLNTLGKSGNLNLEAMTVFDGGEALLKDILGTRMVGLTGQLQFTPDRSRTRPAYDIINVAGTGVRQIGYWSNHSGLSTVLPELLYTKEKPNMSTSPKLKHVIWPGETFTKPRGWVFSNNGKELKIGVPLRVSYKEFVSQIRGTENMFKGFCIDVFTAAVNLLPYAVPVKFIPYGNGKENPSYTHMVEMITTGNFDGVVGDVAIVTNRTKIVDFTQPYAASGLVVVAPFKKLNSGAWAFLRPFNRLMWAVTGCCFLFVGIVVWILEHRTNDEFRGPPKRQCVTILWFSFSTMFFAHRENTVSTLGRLVLIIWLFVVLIINSSYTASLTSILTVQQLSSPIKGIESLRERDDPIGYQVGSFAESYLRNELNISESRLVPLGTPEAYAKALKDGPSKGGVAAIVDERPYVELFLSSNCAYRIVGQEFTKSGWGFAFPRDSPLAIDLSTAILELAENGDLQRIHDKWLMKNACTLENAELESDRLHLKSFWGLFLICGVACLLALFLYFVQIIRQLYKKPTDDAIARDQQQNHDSSSMRSTRLQRFLSLMDEKEESKHESKKRKIDGSMNDTSGSTRSRGFDRERSFNSVNPLD
notes: Bait of the IP-MS, expressed in the glr3.3/glr3.6 mutant background; also called p35S::GLR3.3-3Flag; not shown: C-terminal 3Flag tag of vector pCambia1300-3Flag
binding result (CaM7 (calmodulin 7)): binds

B2: GLR3.3-EGFP (receptor)
chain: EKPKVVKIGSIFSFDSVIGKVAKIAIDEAVKDVNSNPDILSGTKFSVSMQNSNCSGFMGMVEALRFMEKDIVGIIGPQCSVVAHMISHMANELRVPLLSFAVTDPVMSPLQFPYFIRTTQSDLYQMDAIASIVDFYGWKEVIAVFVDDDFGRNGVAALNDKLASRRLRITYKAGLHPDTAVNKNEIMNMLIKIMLLQPRIVVIHVYSELGFAVFKEAKYLGMMGNGYVWIATDWLSTNLDSSSPLPAERLETIQGVLVLRPHTPDSDFKREFFKRWRKMSGASLALNTYGLYAYDSVMLLARGLDKFFKDGGNISFSNHSMLNTLGKSGNLNLEAMTVFDGGEALLKDILGTRMVGLTGQLQFTPDRSRTRPAYDIINVAGTGVRQIGYWSNHSGLSTVLPELLYTKEKPNMSTSPKLKHVIWPGETFTKPRGWVFSNNGKELKIGVPLRVSYKEFVSQIRGTENMFKGFCIDVFTAAVNLLPYAVPVKFIPYGNGKENPSYTHMVEMITTGNFDGVVGDVAIVTNRTKIVDFTQPYAASGLVVVAPFKKLNSGAWAFLRPFNRLMWAVTGCCFLFVGIVVWILEHRTNDEFRGPPKRQCVTILWFSFSTMFFAHRENTVSTLGRLVLIIWLFVVLIINSSYTASLTSILTVQQLSSPIKGIESLRERDDPIGYQVGSFAESYLRNELNISESRLVPLGTPEAYAKALKDGPSKGGVAAIVDERPYVELFLSSNCAYRIVGQEFTKSGWGFAFPRDSPLAIDLSTAILELAENGDLQRIHDKWLMKNACTLENAELESDRLHLKSFWGLFLICGVACLLALFLYFVQIIRQLYKKPTDDAIARDQQQNHDSSSMRSTRLQRFLSLMDEKEESKHESKKRKIDGSMNDTSGSTRSRGFDRERSFNSVNPLD
notes: Used in the Co-IP with anti-GFP magnetic agarose; also called pGLR3.3::GLR3.3-EGFP; not shown: EGFP fusion partner
binding result (3Flag-CaM7): binds

B3: MBP-CD2 (other, not shown: large carriers)
chain: LYFVQIIRQLYKKPTDDAIARMDEKEESKHESKKRKIDGSMNDTSGSTRSRGFDRERSFNSVNPLD
notes: domain: CTD
binding result (GST-CaM7): no binding
